These results are taken from patent US20240343811A1 (SHANDONG SIMCERE BIOPHARMACUTICAL, published 2024).

The target of assay [1] is T1, human CD16b (NA1), full length, on FlpinCHO cells (human, UniProt O75015 17-200).
T1 construct: also called FlpinCHO-human CD16b (NA1)
T1 chain: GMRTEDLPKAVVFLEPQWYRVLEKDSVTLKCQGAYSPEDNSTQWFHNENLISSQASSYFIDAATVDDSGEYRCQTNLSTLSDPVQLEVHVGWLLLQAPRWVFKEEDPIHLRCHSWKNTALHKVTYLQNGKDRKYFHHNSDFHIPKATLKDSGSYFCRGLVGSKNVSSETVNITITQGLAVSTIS
The assay can be described thus: FACS on FlpinCHO cells. The method, boiled down:
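EC50 values come from fitted MFI curves measured by FACS. Antibody dilutions were bound for 1 hour on ice to CD16b-transfected FlpinCHO cells suspended in PBS with 2% BSA blocking solution.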

Assay [2] deals with T2, cynomolgus monkey CD16, full length, on FlpinCHO cells (cynomolgus monkey, UniProt Q8SPW2 17-254).
T2 construct: also called FlpinCHO-cyno CD16; Flipin CHO-cyno CD16
The assay is described as follows: FACS on FlpinCHO cells. The method, boiled down:
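FlpinCHO cells expressing full-length cynomolgus CD16, blocked in PBS/2% BSA at 2×10⁶ cells/ml, incubated with antibody at various concentrations 1 h on ice. Flow cytometry MFI fitted to give EC50.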

In assay [3] the target is T3, human CD16a (158V), full length, on cells (human, UniProt P08637 17-254). The assay can be described thus: cell-based or functional assay.
Assay [4] addresses T4, human CD16a (158F), full length, on FlpinCHO cells (human, UniProt P08637 17-254). The assay is described as follows: FACS, biotinylated antibody. On the technique in general: A flow cytometer gives signals particle by particle.
The target in assay [5] is T3, human CD16a (158V), full length, on …. The assay is described as follows: FACS, biotinylated antibody.
For assay [6], the target named is T5, CD16 on primary human NK cells (human, UniProt P08637 17-254).
T5 construct: whole, on cells; also called resting NK cells
The assay is described as follows: FACS on human NK cells, biotinylated antibody; NK cells, no human immunoglobulin; Table 15.

Assay [7] concerns the target T4, human CD16a (158F), full length, on …. The assay can be described thus: FACS on FlpinCHO cells; no human immunoglobulin; unlabeled antibody, first batch of Table 10. On the procedure: (§1) The required cells were scale-up cultured in a T-75 cell culture flask to the logarithmic growth phase. The medium was aspirated, and the cells were washed twice with a PBS buffer and then digested with trypsin. After the digestion was terminated, the cells were washed twice with the PBS buffer. The cells were counted, and then the cell pellet was resuspended with a [PBS+2% (w/w) BSA] blocking solution to 2×10⁶ cells/ml, and added to a 96-well FACS reaction plate at 50 μl/well. […] 50 μl/well of the antibody to be detected was added at different concentrations, and incubated on ice for 1 hour. […] The mixture was centrifuged and washed 5 times with PBS, and FACS (FACS Canto II, purchased from BD Company) was used for detection and result analysis. Data analysis was performed by software (CellQuest) to obtain the mean fluorescence intensity (MFI) of the cells. Then, software (GraphPad Prism8) was used for analysis, data fitting and EC50 value calculation.

For assay [8], the target named is T3, human CD16a (158V), full length, on …. The assay is described as above. As for the experimental part:
as §1

For assay [9], the target named is T4, human CD16a (158F), full length, on …. The assay is described as follows: FACS on FlpinCHO cells; no human immunoglobulin; unlabeled antibody, second batch of Table 10. On the procedure:
as §1

The target of assay [10] is T3, human CD16a (158V), full length, on …. The assay is described as above. As for the experimental part: as §1
Assay [11] shares this target. The assay can be described thus: FACS, biotinylated antibody; biotinylated antibody, no human immunoglobulin; first batch of Table 11-1. As for the experimental part: as §1, with “The” for “The required cells were scale-up cultured in a T-75 cell culture flask to the logarithmic growth phase. The”
(§2) An antibody to be detected was labeled in advance according to the instructions of a biotin labeling kit (EZ-Link™ NHS-PEG4 Biotinylation Kit, purchased from Thermofisher Scientific, catalog number: 21455). […] Detection was performed according to the method of Example 3.1, wherein the biotinylated antibody was detected with fluorescein APC-labeled Streptavidin (High Concentration) (purchased from Biolegend, catalog number: 405243).

The target in assay [12] is T4, human CD16a (158F), full length, on …. The assay is described as follows: FACS, biotinylated antibody; biotinylated antibody, no human immunoglobulin; first batch of Table 12-2. On the procedure:
as §1, with “The” for “The required cells were scale-up cultured in a T-75 cell culture flask to the logarithmic growth phase. The”
as §2

In assay [13] the target is T5, CD16 on primary human NK cells. The assay is described as follows: FACS on human NK cells, biotinylated antibody; NK cells, no human immunoglobulin; Table 29 (later experiment).

Values joined by “and” are separate entries in the source; they are usually repeats but may differ in a detail not shown here. Equal values may be shown once.

T2 sequence (Q8SPW2 other isoform, or with tags, fused parts or gaps limits assumed): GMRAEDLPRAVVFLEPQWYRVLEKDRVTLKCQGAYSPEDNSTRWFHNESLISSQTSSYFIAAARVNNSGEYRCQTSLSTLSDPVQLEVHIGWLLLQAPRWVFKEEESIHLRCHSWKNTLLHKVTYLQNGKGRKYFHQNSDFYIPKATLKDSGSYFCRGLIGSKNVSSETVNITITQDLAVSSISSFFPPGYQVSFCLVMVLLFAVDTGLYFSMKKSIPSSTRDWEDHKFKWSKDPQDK

B1: 3G8 scFv-hFc (Fc fusion)
chain: DTVLTQSPASLAVSLGQRATISCKASQSVDFDGDSFMNWYQQKPGQPPKLLIYTTSNLESGIPARFSASGSGTDFTLNIHPVEEEDTATYYCQQSNEDPYTFGGGTKLEIKGGGGSGGGGSGGGGSQVTLKESGPGILQPSQTLSLTCSFSGFSLRTSGMGVGWIRQPSGKGLEWLAHIWWDDDKRYNPALKSRLTISKDTSSNQVFLKIASVDTADTATYYCAQINPAWFAYWGQGTLVTVSAEPKSSDKTHTCPPCPAPEEFGGPSVFLFPPKPKDTLMISRTPEVTCVVVAVSHEDPEVKFNWYVDGVEVHNAKTKPREEQYNSTYRVVSVLTVLHQDWLNGKEYKCKVSNKALPAPIEKTISKAKGQPREPQVYTLPPSREEMTKNQVSLTCLVKGFYPSDIAVEWESNGQPENNYKTTPPVLDSDGSFFLYSKLTVDKSRWQQGNVFSCSVMHEALHNHYTQKSLSLSPGK
notes: also called control antibody 3G8
For orientation: EC50 means the concentration needed to bring the measured effect to its halfway point. As to B1, the EC50 in assay [1] is 1.22 nM and 2.13 nM; in assay [2], 2.92 nM; in assay [4], 3.43 nM; in assay [5], 0.99 nM; in assay [6] it was 1.99 nM; in assay [7] it was around 0.82 nM. Also, the EC50 in [8] worked out at 0.56 nM; in [9], 1.63 nM; in [10], 1.13 nM; in [11], 0.7 nM; in assay [12], 1.73 nM; in assay [13] it was 4.45 nM. Moreover, the “Maximum mean fluorescence intensity” value in [2] turned out to be 22300; in assay [4] it was 2010; in assay [5], 7520. Also, the “EC50, activation activity for Jurkat cell” value in assay [3] worked out at 0.03 nM. Also, the Maximum fluorescence value in [3] was 153000.
